According to doi:10.1101/2022.08.17.504349:

Molecular target: RGA5-HMA5 labeled with NT-647 (MST) (rice) (UniProt F7J0N2)
Test: MST

## AVR-PikD, recombinant (MST and HDX-MS) (natural protein)
  Kd: 12 µM
